A short description of the data set: self-splicing fitness, log relative to wild type (ln ratio); higher = more splicing; Tetrahymena group I intron in knt gene, E. coli kanamycin selection, DiMSum; sequences stand for … in CUCUCU…GGAGGGAAAAGUUAUCAGGCAUGCACCUGGUAGCUAGUCUUUAAACCAAUAGAUUGCAUCGGUUUAAAAGGCAAGACCGUCAAAUUGCGGGAAAGGGGUCAACAGCCGUUCAGUACCAAGUCUCAGGGGAAACUUUGAGAUGGCCUUGCAAAGGGUAUGGUAAUAAGCUGACGGACAUGGUCCUAACCACGCAGCCAAGUCCUAAGUCAACAGAUCUUCUGUUGAUAUGGAUGCAGUUCACAGACUAAAUGUCGGUCGGGGAAGAUGUAUUCUUCUCAUAAGAUAUAGUCGGACCUCUCCUUAAUGGGAGCUAGCGGAUGAAGUGAUGCAACACUGGAGCCGCUGGGAACUAAUUUGUAUGCGAAAGUAUAUUGAUUAGUUUUGGAGUACUCGUGGUCG
The method in brief: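 Six replicate transformations of E. coli BL21(DE3) with a pET-22b(+) library were grown overnight at 37°C or 30°C. The library randomised all eight P1ex-region intron nucleotides, the intron lying in the knt kanamycin-resistance gene, and plates were LB agar with or without 25 μg/mL kanamycin plus 100 μg/mL carbenicillin, 50 μM IPTG and 0.2% rhamnose. Pooled colonies were amplicon-sequenced on an Illumina HiSeq 2500, and fitness is the DiMSum error-weighted combination of wild-type-normalised replicate fold changes, kanamycin versus none.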

± gives the uncertainty stated by the source.

In the case of AUAUAGCAAUAUUACGGUAA, the “self-splicing fitness (ln)” value was -1.94 ± 0.15 (30 °C) and -0.869 ± 0.13 (37 °C).
In the case of CCAAAGCAAUAUUACGCUUA, the “self-splicing fitness (ln)” value is -3.86 ± 0.24 (30 °C) and -3.12 ± 0.22 (37 °C).
The matching figures for CAAAAGCAAUAUUACGUAGG: -0.97 ± 0.057 and 0.00194 ± 0.083.
The matching figures for GCUCAGCAAUAUUACGUGGA: -1.91 ± 0.1 and -1.63 ± 0.12.
The matching figures for CAUGAGCAAUAUUACGAGGG: -3.79 ± 0.22 and -1.03 ± 0.14.
Turning to UACAAGCAAUAUUACGGAGC, the “self-splicing fitness (ln)” value was -3.08 ± 0.21 (30 °C) and -2.78 ± 0.34 (37 °C).
The like results for UGAGAGCAAUAUUACGGCAU were, in that order, -2.88 ± 0.23 and -2.85 ± 0.33.
The matching figures for CUGCAGCAAUAUUACGAAUU: -3.62 ± 0.22 and -3.18 ± 0.43.
The like results for UGUGAGCAAUAUUACGGAGG were, in that order, -3.33 ± 0.29 and -2.11 ± 0.34.
Consider CACCAGCAAUAUUACGUCAU, for which the “self-splicing fitness (ln)” value is, setting by setting: (30 °C) -4.12 ± 0.17; (37 °C) -2.27 ± 0.14.
The matching figures for CAGGAGCAAUAUUACGGCGC: -3.61 ± 0.36 and -3.31 ± 0.16.
The like results for CAAGAGCAAUAUUACGAUCG were, in that order, -0.79 ± 0.071 and 0.562 ± 0.1.
In the case of CGUAAGCAAUAUUACGGUGA, the “self-splicing fitness (ln)” value (30 °C) is -3.29 ± 0.17 and the “self-splicing fitness (ln)” value (37 °C) is -3.18 ± 0.22.
The like results for ACUAAGCAAUAUUACGCCGU were, in that order, -1.86 ± 0.2 and -1.64 ± 0.18.
Consider GUUUAGCAAUAUUACGAGUG, for which the “self-splicing fitness (ln)” value was -3.74 ± 0.17 (30 °C) and -0.634 ± 0.11 (37 °C).
In the case of ACCUAGCAAUAUUACGCAUA, the “self-splicing fitness (ln)” value runs as follows: (30 °C) -2 ± 0.2; (37 °C) -1.85 ± 0.16.
On to CACGAGCAAUAUUACGGCCA, for which, for the setting “37 °C”, the “self-splicing fitness (ln)” value is -2.79 ± 0.32.
In the case of ACACAGCAAUAUUACGGGAU, the “self-splicing fitness (ln)” value was -1.91 ± 0.053 (30 °C) and -0.774 ± 0.06 (37 °C).
Take AUACAGCAAUAUUACGUGGU: the “self-splicing fitness (ln)” value by setting is: (30 °C) -2.71 ± 0.13; (37 °C) -2.27 ± 0.14.
For the sequence ACCCAGCAAUAUUACGUCGU, the “self-splicing fitness (ln)” value is -0.24 ± 0.039 (30 °C) and -0.318 ± 0.051 (37 °C).
The like results for UUGGAGCAAUAUUACGACCU were, in that order, -2.97 ± 0.32 and -0.7 ± 0.38.
The like results for GACCAGCAAUAUUACGCUGA were, in that order, -1.04 ± 0.11 and -0.811 ± 0.097.
With GGCGAGCAAUAUUACGUGCG, the “self-splicing fitness (ln)” value reads like this: (30 °C) -1.65 ± 0.11; (37 °C) -0.955 ± 0.1.
With GCACAGCAAUAUUACGUCGU, the “self-splicing fitness (ln)” value (30 °C) is -0.704 ± 0.083 and the “self-splicing fitness (ln)” value (37 °C) was 0.241 ± 0.091.
The matching figures for UCCAAGCAAUAUUACGAUCU: -3.08 ± 0.26 and -2.56 ± 0.22.
The matching figures for AGGCAGCAAUAUUACGUAAU: -1.94 ± 0.088 and -0.867 ± 0.088.
The matching figures for CAUCAGCAAUAUUACGGAAU: -2.46 ± 0.12 and -2.11 ± 0.11.
For GGCCAGCAAUAUUACGGCGA, the “self-splicing fitness (ln)” value by setting is: (30 °C) 0.0969 ± 0.095; (37 °C) 0.581 ± 0.11.
The like results for CGAAAGCAAUAUUACGCCUA were, in that order, -2.47 ± 0.24 and -0.736 ± 0.14.
The matching figures for UCUAAGCAAUAUUACGAGAG: -3.21 ± 0.28 and -2.37 ± 0.21.
The like results for UAUUAGCAAUAUUACGUUGU were, in that order, -3.93 ± 0.34 and -3.04 ± 0.4.
In the case of CCAAAGCAAUAUUACGUAUG, the “self-splicing fitness (ln)” value reads like this: (30 °C) -0.512 ± 0.059; (37 °C) -0.574 ± 0.093.
The like results for UCAAAGCAAUAUUACGGCGA were, in that order, -0.708 ± 0.074 and -0.462 ± 0.068.
The matching figures for UCAUAGCAAUAUUACGUAAG: -1.66 ± 0.1 and -1.91 ± 0.15.
The like results for GGUGAGCAAUAUUACGAUAC were, in that order, -2.03 ± 0.16 and -0.811 ± 0.15.
Take UUACAGCAAUAUUACGAGGA: the “self-splicing fitness (ln)” value is, setting by setting: (30 °C) -2.24 ± 0.19; (37 °C) -0.838 ± 0.15.
The like results for UUAUAGCAAUAUUACGUGGA were, in that order, -2.5 ± 0.41 and -1.23 ± 0.22.
The like results for AAAUAGCAAUAUUACGCGCG were, in that order, -0.988 ± 0.1 and -0.952 ± 0.11.
The like results for AUCCAGCAAUAUUACGGAUC were, in that order, -3.35 ± 0.18 and -3.11 ± 0.2.
AAGUAGCAAUAUUACGAAGA: the “self-splicing fitness (ln)” value was -2.57 ± 0.34 (30 °C) and -2.06 ± 0.34 (37 °C).
The matching figures for CUUAAGCAAUAUUACGCCAG: -2.49 ± 0.22 and -2.06 ± 0.33.
The like results for GGGGAGCAAUAUUACGCUGG were, in that order, -2.98 ± 0.47 and -0.764 ± 0.47.
The like results for UGAGAGCAAUAUUACGUAUU were, in that order, -3.22 ± 0.34 and -1 ± 0.21.
Consider UGCCAGCAAUAUUACGCUAG, for which the “self-splicing fitness (ln)” value runs as follows: (30 °C) -4.69 ± 0.39; (37 °C) -1.35 ± 0.22.
On to CAGAAGCAAUAUUACGCUGC, for which the “self-splicing fitness (ln)” value (37 °C) is -2.34 ± 0.49.
Regarding CCGCAGCAAUAUUACGGCUG, the “self-splicing fitness (ln)” value is -3.8 ± 0.29 (30 °C) and -2.45 ± 0.27 (37 °C).
The matching figures for UUCAAGCAAUAUUACGGGUC: -4.54 ± 0.32 and -1.53 ± 0.14.
Regarding UGUCAGCAAUAUUACGAUGC, under “30 °C”, the “self-splicing fitness (ln)” value is -2.28 ± 0.42.
For GUCGAGCAAUAUUACGAUGC, the “self-splicing fitness (ln)” value was -1.17 ± 0.18 (30 °C) and -1.09 ± 0.18 (37 °C).
The matching figures for CAGAAGCAAUAUUACGUAGA: -3.54 ± 0.1 and -0.762 ± 0.075.
The matching figures for AUUAAGCAAUAUUACGGAGG: -2.32 ± 0.16 and -1.42 ± 0.27.
The like results for GCCGAGCAAUAUUACGACGU were, in that order, -0.371 ± 0.11 and -0.741 ± 0.11.
ACGAAGCAAUAUUACGUCUU: the “self-splicing fitness (ln)” value is -2.32 ± 0.17 (30 °C) and -1.91 ± 0.16 (37 °C).
The matching figures for AGUUAGCAAUAUUACGAAUC: -2.57 ± 0.15 and -2.03 ± 0.21.
The like results for AUACAGCAAUAUUACGCCGC were, in that order, -3.8 ± 0.27 and -2.19 ± 0.2.
The like results for AAUCAGCAAUAUUACGCUGU were, in that order, -3.28 ± 0.14 and -1.59 ± 0.11.
With CGGCAGCAAUAUUACGCGCG, the “self-splicing fitness (ln)” value (30 °C) was -2.65 ± 0.22 and the “self-splicing fitness (ln)” value (37 °C) was -1.54 ± 0.23.
The like results for GGUUAGCAAUAUUACGAGUA were, in that order, -4.51 ± 0.46 and -1.58 ± 0.2.
The matching figures for AUCCAGCAAUAUUACGAGUG: -1.66 ± 0.095 and -1.77 ± 0.11.
The matching figures for UGGCAGCAAUAUUACGAUAU: -2.5 ± 0.16 and -1.37 ± 0.21.
Consider CGGUAGCAAUAUUACGUGGG, for which the “self-splicing fitness (ln)” value by setting is: (30 °C) -3.79 ± 0.17; (37 °C) -3.11 ± 0.14.
On to GCAUAGCAAUAUUACGAUGC, for which the “self-splicing fitness (ln)” value (30 °C) is -2.72 ± 0.28.
For the sequence AAACAGCAAUAUUACGGUCA, the “self-splicing fitness (ln)” value runs as follows: (30 °C) -0.86 ± 0.089; (37 °C) 0.186 ± 0.097.
As to CAGUAGCAAUAUUACGCUCG, the “self-splicing fitness (ln)” value (30 °C) is -0.354 ± 0.12 and the “self-splicing fitness (ln)” value (37 °C) is -0.439 ± 0.17.
The like results for AUGAAGCAAUAUUACGGUUA were, in that order, -0.509 ± 0.058 and 0.318 ± 0.077.
On to GGCAAGCAAUAUUACGCGAA, for which the “self-splicing fitness (ln)” value is -0.953 ± 0.12 (30 °C) and 0.499 ± 0.13 (37 °C).
The matching figures for CUACAGCAAUAUUACGAUGA: -3.02 ± 0.19 and -2.13 ± 0.14.
The matching figures for ACUCAGCAAUAUUACGCCUA: -0.864 ± 0.15 and -0.0704 ± 0.12.
The like results for ACCUAGCAAUAUUACGUGCA were, in that order, -2.89 ± 0.12 and -1.25 ± 0.1.
AUGUAGCAAUAUUACGACUA: the “self-splicing fitness (ln)” value (30 °C) is -0.419 ± 0.27 and the “self-splicing fitness (ln)” value (37 °C) was -0.536 ± 0.31.
GUAGAGCAAUAUUACGUUUC: the “self-splicing fitness (ln)” value runs as follows: (30 °C) -1.87 ± 0.15; (37 °C) -0.679 ± 0.17.
The like results for UAGCAGCAAUAUUACGCCCC were, in that order, -1.6 ± 0.23 and -1.56 ± 0.31.
Consider CCUCAGCAAUAUUACGUGAG, for which the “self-splicing fitness (ln)” value is, setting by setting: (30 °C) -0.99 ± 0.057; (37 °C) -0.881 ± 0.071.
With UAACAGCAAUAUUACGUACC, the “self-splicing fitness (ln)” value is -0.513 ± 0.19 (30 °C) and -1.7 ± 0.24 (37 °C).
Take GUACAGCAAUAUUACGCUAA: the “self-splicing fitness (ln)” value runs as follows: (30 °C) -2.37 ± 0.14; (37 °C) -0.948 ± 0.11.
In the case of UUUCAGCAAUAUUACGCGCU, where the note is “30 °C”, the “self-splicing fitness (ln)” value is -3.54 ± 0.5.

Source of the values: the supplement of paper PMC7877785.
